Data published in ChEMBL document CHEMBL1130356, “A CHROMOGENIC SUBSTRATE FOR THE CONTINUOUS ASSAY OF MAMMALIAN PHOSPHOINOSITIDE-SPECIFIC PHOSPHOLIPASE C” (Bioorg Med Chem Lett, 1997).

B1: 1-phosphatidylinositol 4,5-bisphosphate phosphodiesterase beta-1 (Homo sapiens), Q9NQ66 (protein)
chain: MAGAQPGVHALQLKPVCVSDSLKKGTKFVKWDDDSTIVTPIILRTDPQGFFFYWTDQNKETELLDLSLVKDARCGRHAKAPKDPKLRELLDVGNIGRLEQRMITVVYGPDLVNISHLNLVAFQEEVAKEWTNEVFSLATNLLAQNMSRDAFLEKAYTKLKLQVTPEGRIPLKNIYRLFSADRKRVETALEACSLPSSRNDSIPQEDFTPEVYRVFLNNLCPRPEIDNIFSEFGAKSKPYLTVDQMMDFINLKQRDPRLNEILYPPLKQEQVQVLIEKYEPNNSLARKGQISVDGFMRYLSGEENGVVSPEKLDLNEDMSQPLSHYFINSSHNTYLTAGQLAGNSSVEMYRQVLLSGCRCVELDCWKGRTAEEEPVITHGFTMTTEISFKEVIEAIAECAFKTSPFPILLSFENHVDSPKQQAKMAEYCRLIFGDALLMEPLEKYPLESGVPLPSPMDLMYKILVKNKKKSHKSSEGSGKKKLSEQASNTYSDSSSMFEPSSPGAGEADTESDDDDDDDDCKKSSMDEGTAGSEAMATEEMSNLVNYIQPVKFESFEISKKRNKSFEMSSFVETKGLEQLTKSPVEFVEYNKMQLSRIYPKGTRVDSSNYMPQLFWNAGCQMVALNFQTMDLAMQINMGMYEYNGKSGYRLKPEFMRRPDKHFDPFTEGIVDGIVANTLSVKIISGQFLSDKKVGTYVEVDMFGLPVDTRRKAFKTKTSQGNAVNPVWEEEPIVFKKVVLPTLACLRIAVYEEGGKFIGHRILPVQAIRPGYHYICLRNERNQPLTLPAVFVYIEVKDYVPDTYADVIEALSNPIRYVNLMEQRAKQLAALTLEDEEEVKKEADPGETPSEAPSEARTTPAENGVNHTTTLTPKPPSQALHSQPAPGSVKAPAKTEDLIQSVLTEVEAQTIEELKQQKSFVKLQKKHYKEMKDLVKRHHKKTTDLIKEHTTKYNEIQNDYLRRRAALEKSAKKDSKKKSEPSSPDHGSSTIEQDLAALDAEMTQKLIDLKDKQQQQLLNLRQEQYYSEKYQKREHIKLLIQKLTDVAEECQNNQLKKLKEICEKEKKELKKKMDKKRQEKITEAKSKDKSQMEEEKTEMIRSYIQEVVQYIKRLEEAQSKRQEKLVEKHKEIRQQILDEKPKLQVELEQEYQDKFKRLPLEILEFVQEAMKGKISEDSNHGSAPLSLSSDPGKVNHKTPSSEELGGDIPGKEFDTPL

Columns and labels:
[1] = biological target: T1, 1-phosphatidylinositol 4,5-bisphosphate phosphodiesterase beta-1 (Homo sapiens) (UniProt Q9NQ66); assay: Ratio of the kinetic constant kcat to that of KM
T1 sequence (whole entry): B1 chain

[2] = biological target: T1, 1-phosphatidylinositol 4,5-bisphosphate phosphodiesterase beta-1 (Homo sapiens); assay: Kinetic constant kcat against human phosphoinositide-specific phospholipase C
[3] = substrate: O=[N+]([O-])c1ccc(OP(=O)(O)O[C@@H]2[C@H](O)[C@H](O)[C@@H](OP(=O)(O)O)[C@H](OP(=O)(O)O)[C@H]2O)cc1; assay: Kinetic constant Vmax against human phosphoinositide-specific phospholipase C
[4] = substrate: O=[N+]([O-])c1ccc(OP(=O)(O)O[C@@H]2[C@H](O)[C@H](O)[C@@H](OP(=O)(O)O)[C@H](OP(=O)(O)O)[C@H]2O)cc1; assay: Michaelis-Menten constant of the compound (D-isomer) was determined against human phosphoinositide-specific phospholipase C
[5] = substrate: O=[N+]([O-])c1ccc(OP(=O)(O)O[C@@H]2[C@H](O)[C@H](O)[C@@H](OP(=O)(O)O)[C@H](OP(=O)(O)O)[C@H]2O)cc1; assay: Michaelis-Menten constant against human phosphoinositide-specific phospholipase C

| Molecule | Ratio [1] | k cat [2] | Vmax [3] | Km [4] | Km [5] |
| --- | --- | --- | --- | --- | --- |
| O=[N+]([O-])c1ccc(OP(=O)(O)O[C@@H]2[C@H](O)[C@H](O)[C@@H](OP(=O)(O)O)[C@H](OP(=O)(O)O)[C@H]2O)cc1 (racemic) | 83000 | 112 s⁻¹ |  |  |  |
| B1 |  |  | 78.5 µM/min/mg | 1350 µM | 2700 µM |
